Here are results for two molecules from publication PMC6070864, “The Bacteriophage T4 MotB Protein, a DNA-Binding Protein, Improves Phage Fitness”.

The target of data set [1] is T1, MotB-His (Enterobacteria phage T4, UniProt Q01437 1-162).
T1 sequence: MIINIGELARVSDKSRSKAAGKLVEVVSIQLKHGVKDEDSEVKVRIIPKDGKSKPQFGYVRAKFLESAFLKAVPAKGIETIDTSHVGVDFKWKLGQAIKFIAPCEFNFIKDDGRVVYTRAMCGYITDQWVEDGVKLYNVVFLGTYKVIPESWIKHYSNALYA
Description: EMSA; apparent Kd (50% shift); 4 mM Mg acetate; Oligo EMSA/footprint: 40 mM Tris acetate pH 7.9, 20 mM Tris-HCl pH 8.0, 2 mM K phosphate, 60 mM NaCl, 150 mM K glutamate, 4 mM Mg acetate, 0.52 mM EDTA, 0.14 mM DTT, 0.1 mg/mL BSA, 0.004% Triton X-100, 30% glycerol, 1 nM DNA (5 nM in footprint), 37 C 10 min; T4/lambda EMSA: 20 mM Tris-HCl pH 8, 2 mM K phosphate, 60 mM NaCl, 0.42 mM EDTA, 0.04 mM DTT, 0.004% Triton …. The settings on record: protein: recombinant; tags: C-terminal His6; label: 5'-32P top strand.

Data set [2] has as its target T1, MotB-His. In words: EMSA; 4 mM Mg acetate; Oligo EMSA/footprint: 40 mM Tris acetate pH 7.9, 20 mM Tris-HCl pH 8.0, 2 mM K phosphate, 60 mM NaCl, 150 mM K glutamate, 4 mM Mg acetate, 0.52 mM EDTA, 0.14 mM DTT, 0.1 mg/mL BSA, 0.004% Triton X-100, 30% glycerol, 1 nM DNA (5 nM in footprint), 37 C 10 min; T4/lambda EMSA: 20 mM Tris-HCl pH 8, 2 mM K phosphate, 60 mM NaCl, 0.42 mM EDTA, 0.04 mM DTT, 0.004% Triton X-100, 30% glycerol, 37 C 10 …. Conditions: protein: recombinant; tags: C-terminal His6; label: 5'-32P.

B1: dsP8 (37 bp) (dsDNA)
DNA 1: CAGAGACTATAATTAATAAATACAAAAACTATAAATG
DNA 2: CATTTATAGTTTTTGTATTTATTAATTATAGTCTCTG
On to B1, for which the Kd with MotB-His [1] is 100 ± 30 nM.

With CAGAGACTATAATTAATAAATACAAAAACTATAAATG (ssDNA) [ssP8 (37 nt)], the binding signal with MotB-His [2] was ~6 fold lower affinity than dsP8.
